Measurements from PMC9237115, “Hsp multichaperone complex buffers pathologically modified Tau” (Nature Communications, 2022).

Target: T1, Full-length human Tau (MAPT) (human, UniProt P10636-8 1-441)
T1 construct: Tau (MAPT), human, full length; 15N-labelled for the HSQC NMR experiments; also called unmodified Tau; source: E. coli BL21 (DE3), pNG2 vector, purified (boiling, ammonium sulfate, cation exchange, gel filtration)
Test: NMR titration; 2D 1H-15N HSQC of 24 µM 15N-labelled Tau (or PTau^Cdk2), 5 °C, 25 mM HEPES pH 7.4/100 mM KCl/5 mM MgCl2/1 mM TCEP; chaperones added
Details: both partners purified

T1 sequence (P10636 other isoform, or with tags, fused parts or gaps): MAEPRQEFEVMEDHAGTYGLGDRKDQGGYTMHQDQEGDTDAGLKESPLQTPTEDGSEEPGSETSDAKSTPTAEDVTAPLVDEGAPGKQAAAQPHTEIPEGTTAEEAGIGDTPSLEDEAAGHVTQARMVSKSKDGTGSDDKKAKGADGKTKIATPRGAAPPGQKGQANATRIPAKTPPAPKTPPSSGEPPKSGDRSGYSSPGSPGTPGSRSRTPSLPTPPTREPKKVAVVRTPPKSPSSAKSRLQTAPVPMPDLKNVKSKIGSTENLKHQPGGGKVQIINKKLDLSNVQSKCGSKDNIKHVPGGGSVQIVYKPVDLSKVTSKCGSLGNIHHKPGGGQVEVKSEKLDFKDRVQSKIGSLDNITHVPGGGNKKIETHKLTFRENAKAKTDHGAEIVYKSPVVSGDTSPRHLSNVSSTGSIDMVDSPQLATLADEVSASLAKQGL

B1: p23 (PTGES3) (natural protein, human, UniProt Q15185 1-160, looked up)
chain: MQPASAKWYDRRDYVFIEFCVEDSKDVNVNFEKSKLTFSCLGGSDNFKHLNEIDLFHCIDPNDSKHKRTDRSILCCLRKGESGQSWPRLTKERAKLNWLSVDFNNWKDWEDDSDEDMSNFDRFSEMMNNMGGDEDVDLPEVDGADDDSQDSDDEKMPDLE
notes: p23 (PTGES3), human, full-length DNA in pET28a; source: E. coli Rosetta 2 (DE3), purified (Ni-NTA, thrombin cleavage, SEC); not shown: His6, N-terminal, cleaved
- binding result: binds
